Results published in patent US20180022797A1 (published 2018).
Ends that are not written are not given here.

Target: T1, peptide 13 (TSESGELHGLTTE) (human, also: biotinylated, site not given here)
T1 construct: on the D-strand
T1 peptide: TSESGELHGLTTE
Assay: ELISA: antibody titrated on NeutrAvidin-captured biotinylated peptide, non-linear regression
Protocol: ELISA assay was then utilized to identify the corresponding epitope(s) for each antibody. 5 μg/mL of NeutrAvidin (Pierce, USA) in 50 mM pH 9.6 sodium carbonate/bicarbonate buffer was used to coat 96-well Corning high-binding EIA/RIA plates. The plates were washed three times with TBST buffer and blocked with Superblock (Pierce, USA). Fifty to one hundred microliters of the biotinylated peptides were diluted with PBS to […] and added to each well and incubated at room temperature for one hour. […] After one hour room temperature incubation and washing steps, HRP-conjugated secondary antibody was applied. Goat-anti-mouse IgG or Fc HRP conjugates were used in the case of mouse monoclonal antibodies while goat-anti-rabbit IgG HRP conjugate antibody was used for rabbit polyclonal detection. TMB was used as the HRP substrate for the detections.

B1: MFD108 (antibody, V domains shown)
VH: EVQLVESGGDLVKPGGSLKLSCAASGFTFSNYGMSWVRQTPDKRLEWVATITSGGSYTYYPDSVKGRFTISRDNAKNTLYLQMSSLKSEDTAMYYCARDGTAWFAYWGQGTLVTVSA
VL: DIQMTQTTSSLSASLGDRVTISCRASQDISNYLNWYQQKPDGTVKLLIYYTSRLHSGVPSRFSGSGSGTDYSLTISNLEEEDIATYFCQQGNTLRTFGGGTKLEIK
notes: Mouse monoclonal IgG1, kappa light chain; also called mouse monoclonal antibody MFD108; hybridoma ATCC PTA-120816
Kd: 0.25 nM
